From PMC4605320, “Interference activity of a minimal Type I CRISPR–Cas system from Shewanella putrefaciens”

Biological target: T1, Cas1821 (Cascade backbone);Cas1822;Cas6f (Shewanella putrefaciens …, UniProt A4Y6G1;A4Y6G2;A4Y6G3 1-315;1-336;1-183, ||)
T1 sequence 1: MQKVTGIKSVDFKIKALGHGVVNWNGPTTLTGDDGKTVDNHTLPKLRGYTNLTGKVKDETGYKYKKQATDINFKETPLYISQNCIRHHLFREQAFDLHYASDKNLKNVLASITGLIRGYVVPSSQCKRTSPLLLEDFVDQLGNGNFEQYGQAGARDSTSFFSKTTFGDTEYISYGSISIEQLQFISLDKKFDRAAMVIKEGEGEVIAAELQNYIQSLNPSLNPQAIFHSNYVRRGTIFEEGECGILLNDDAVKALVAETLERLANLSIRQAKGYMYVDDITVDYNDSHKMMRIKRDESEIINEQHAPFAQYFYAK
T1 sequence 2: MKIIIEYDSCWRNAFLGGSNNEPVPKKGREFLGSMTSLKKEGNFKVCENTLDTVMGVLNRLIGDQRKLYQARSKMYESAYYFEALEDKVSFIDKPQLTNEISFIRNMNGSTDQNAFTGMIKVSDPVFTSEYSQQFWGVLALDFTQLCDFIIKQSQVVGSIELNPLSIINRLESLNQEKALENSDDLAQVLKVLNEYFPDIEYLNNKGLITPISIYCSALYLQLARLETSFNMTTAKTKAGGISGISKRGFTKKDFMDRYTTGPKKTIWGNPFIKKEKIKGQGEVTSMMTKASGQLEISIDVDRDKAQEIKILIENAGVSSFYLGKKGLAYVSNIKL
T1 sequence 3: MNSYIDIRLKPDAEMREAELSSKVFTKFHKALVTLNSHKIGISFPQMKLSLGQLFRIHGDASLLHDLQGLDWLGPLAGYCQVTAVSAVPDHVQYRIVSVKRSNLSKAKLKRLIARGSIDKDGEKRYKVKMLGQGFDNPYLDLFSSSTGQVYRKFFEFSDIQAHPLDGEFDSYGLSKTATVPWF
Assay: co-purification (Ni-NTA, size exclusion; RNA by urea PAGE); complex assembled in E. coli; EMSA: 6% native PAGE, 250-500 nM Cas1821, buffer and temperature not given; Cascade SEC: 50 mM HEPES-NaOH pH 7.0, 150 mM NaCl, 1 mM DTT
Settings: protein: recombinant;recombinant;recombinant; tags: N-terminal His;none;none; chain copies: 6;1;1; 3' five base pair stem-loop (predicted)

B1: mature crRNA, spacer4 (60 nt) (structured_RNA)
RNA: CUUAGAAAUAUCGCCCAGCAAGACGCGCAAACCUAUAACCGUUCACCGCCGCACAGGCGG
B1: binds.
